Patent publication US20140087995A1 (published 2014)
Numbered stars: 1 amine (or outer) side, 2 acyl side, 3 side chain; on linkers, the order of the positions; unused ones are H or OH. Bridge positions count the residues as written; N and C are the ends. Side chains are listed from the residue outwards. Ends that are not written are not given here. * marks the point of attachment. C16 diacid = O=C(O)CCCCCCCCCCCCCCC(=O)*; γGlu = O=C(O)[C@H](CCC(=O)[*:2])N[*:1]; C14 diacid = O=C(O)CCCCCCCCCCCCC(=O)*

T1: human calcitonin receptor (human, UniProt P30988 25-474)
T1 construct: whole, on cells; Assay used cell membranes, not intact cells; also called hCTR; hCT
T1 sequence (looked up): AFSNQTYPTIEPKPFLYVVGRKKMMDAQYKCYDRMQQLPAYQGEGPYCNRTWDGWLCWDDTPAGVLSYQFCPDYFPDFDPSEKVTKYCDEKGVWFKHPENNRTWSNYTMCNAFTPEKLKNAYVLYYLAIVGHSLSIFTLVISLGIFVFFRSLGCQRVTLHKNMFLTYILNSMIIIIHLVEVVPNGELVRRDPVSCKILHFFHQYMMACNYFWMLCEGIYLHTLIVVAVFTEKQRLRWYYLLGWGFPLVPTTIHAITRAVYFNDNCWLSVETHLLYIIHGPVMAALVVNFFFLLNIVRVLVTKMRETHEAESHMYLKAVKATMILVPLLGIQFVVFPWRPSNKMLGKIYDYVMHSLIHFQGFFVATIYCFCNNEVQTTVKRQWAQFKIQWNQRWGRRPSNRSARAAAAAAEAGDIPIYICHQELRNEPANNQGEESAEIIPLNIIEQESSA

T2: human amylin receptor (amylin 3(a) receptor: human calcitonin receptor with RAMP-3) (human, UniProt P30988 25-474; O60896 24-148)
T2 construct: whole, on cells; Assay used cell membranes of the Amylin 3(a)/CRE-luc BHK cells, not intact cells; also called hAmylin-R; hAmylinR
T2 sequence (looked up) 1: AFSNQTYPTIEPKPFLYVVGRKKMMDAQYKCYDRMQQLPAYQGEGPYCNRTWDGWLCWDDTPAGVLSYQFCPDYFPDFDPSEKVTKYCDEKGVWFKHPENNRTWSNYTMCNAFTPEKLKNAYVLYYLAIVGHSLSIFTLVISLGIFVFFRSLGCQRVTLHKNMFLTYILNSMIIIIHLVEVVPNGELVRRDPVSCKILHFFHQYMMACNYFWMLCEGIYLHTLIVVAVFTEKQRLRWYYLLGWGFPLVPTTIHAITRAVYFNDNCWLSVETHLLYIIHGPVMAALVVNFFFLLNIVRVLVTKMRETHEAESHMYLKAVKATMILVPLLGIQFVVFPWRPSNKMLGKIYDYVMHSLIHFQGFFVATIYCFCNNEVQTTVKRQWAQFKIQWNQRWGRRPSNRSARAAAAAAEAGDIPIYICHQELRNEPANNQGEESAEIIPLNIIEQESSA
T2 sequence (looked up) 2: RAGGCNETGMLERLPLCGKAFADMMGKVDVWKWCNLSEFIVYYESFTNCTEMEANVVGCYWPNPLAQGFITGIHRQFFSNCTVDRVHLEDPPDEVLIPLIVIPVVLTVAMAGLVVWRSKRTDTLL


Columns and labels:
[1] = biological target: T1, human calcitonin receptor; test: ratio IC50 hCTR / IC50 hAmylin-R (reference: human amylin receptor), SPA competition assays
How it was run: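 IC₅₀ values were derived by one-site competition analysis of SPA counts. Cell membranes (35 ng/μL) with SPA beads were incubated with test compounds for 120 min at 25° C in Hepes buffer, pH 7.4, containing CaCl2, MgCl₂, OA and Tween20.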

[2] = biological target: T2, human amylin receptor (amylin 3(a) …); test: SPA competition with 125I-rat amylin on membranes of BHK cells with human calcitonin receptor and RAMP-3 (Assay V)
How it was run: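 Cell membranes were prepared by homogenisation in Na-HEPES/EDTA buffer, pH 7.4, and stored at −80° C. They were then coupled to SPA beads at 35 ng/μL final and exposed to compounds in assay buffer containing CaCl2, MgCl₂, OA and Tween20. After 120 min at 25° C, plates were counted and IC₅₀ derived.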

[3] = biological target: T1, human calcitonin receptor; test: SPA competition with 125I-calcitonin on membranes of BHK cells with human calcitonin receptor (Assay VII)
How it was run: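 BHK hCTR membranes 35 ng/μL + SPA beads 0.05 mg/well; buffer 50 mM Hepes pH 7.4, 1 mM CaCl2, 5 mM MgCl₂, 0.1% OA, 0.02% Tween20. 120 min, 25° C., shaking. Scintillation count; IC50 by one-site binding competition.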

Row | Ratio hCT/hAmylin binding [1] | IC50 [2] [nM] | IC50 [3] [nM] | Binder
1 | 23.5 | 1.04 | 24.3 | K([γGlu-C14 diacid])CNTATCATQRLANFLRHSSPNFGAIPSSTNVGHNTY-NH2 (disulfide 2-7; N-terminus assumed; SMILES CC[C@H](C)[C@H](NC(=O)[C@H](C)NC(=O)CNC(=O)[C@H](Cc1ccccc1)NC(=O)[C@H](CC(N)=O)NC(=O)[C@@H]1CCCN1C(=O)[C@H](CO)NC(=O)[C@H](CO)NC(=O)[C@H](Cc1c[nH]cn1)NC(=O)[C@H](CCCNC(=N)N)NC(=O)[C@H](CC(C)C)NC(=O)[C@H](Cc1ccccc1)NC(=O)[C@H](CC(N)=O)NC(=O)[C@H](C)NC(=O)[C@H](CC(C)C)NC(=O)[C@H](CCCNC(=N)N)NC(=O)[C@H](CCC(N)=O)NC(=O)[C@@H](NC(=O)[C@H](C)NC(=O)[C@@H]1CSSC[C@H](NC(=O)[C@@H](N)CCCCNC(=O)CC[C@H](NC(=O)CCCCCCCCCCCCC(=O)O)C(=O)O)C(=O)N[C@@H](CC(N)=O)C(=O)N[C@@H]([C@@H](C)O)C(=O)N[C@@H](C)C(=O)N[C@@H]([C@@H](C)O)C(=O)N1)[C@@H](C)O)C(=O)N1CCC[C@H]1C(=O)N[C@@H](CO)C(=O)N[C@@H](CO)C(=O)N[C@H](C(=O)N[C@@H](CC(N)=O)C(=O)N[C@H](C(=O)NCC(=O)N[C@@H](Cc1c[nH]cn1)C(=O)N[C@@H](CC(N)=O)C(=O)N[C@H](C(=O)N[C@@H](Cc1ccc(O)cc1)C(N)=O)[C@@H](C)O)C(C)C)[C@@H](C)O) [N^ε1-[(4S)-4-carboxy-4-(13-carboxytridecanoylamino)butanoyl]-[Arg17,Pro21,Pro27,His34]-h-amylin]
2 | 18.5 | 0.58 | 10.8 | K([γGlu-C16 diacid])CNTATCATQRLANFLRHSSPNFGAIPSSTNVGHNTY-NH2 (disulfide 2-7; N-terminus assumed; SMILES CC[C@H](C)[C@H](NC(=O)[C@H](C)NC(=O)CNC(=O)[C@H](Cc1ccccc1)NC(=O)[C@H](CC(N)=O)NC(=O)[C@@H]1CCCN1C(=O)[C@H](CO)NC(=O)[C@H](CO)NC(=O)[C@H](Cc1c[nH]cn1)NC(=O)[C@H](CCCNC(=N)N)NC(=O)[C@H](CC(C)C)NC(=O)[C@H](Cc1ccccc1)NC(=O)[C@H](CC(N)=O)NC(=O)[C@H](C)NC(=O)[C@H](CC(C)C)NC(=O)[C@H](CCCNC(=N)N)NC(=O)[C@H](CCC(N)=O)NC(=O)[C@@H](NC(=O)[C@H](C)NC(=O)[C@@H]1CSSC[C@H](NC(=O)[C@@H](N)CCCCNC(=O)CC[C@H](NC(=O)CCCCCCCCCCCCCCC(=O)O)C(=O)O)C(=O)N[C@@H](CC(N)=O)C(=O)N[C@@H]([C@@H](C)O)C(=O)N[C@@H](C)C(=O)N[C@@H]([C@@H](C)O)C(=O)N1)[C@@H](C)O)C(=O)N1CCC[C@H]1C(=O)N[C@@H](CO)C(=O)N[C@@H](CO)C(=O)N[C@H](C(=O)N[C@@H](CC(N)=O)C(=O)N[C@H](C(=O)NCC(=O)N[C@@H](Cc1c[nH]cn1)C(=O)N[C@@H](CC(N)=O)C(=O)N[C@H](C(=O)N[C@@H](Cc1ccc(O)cc1)C(N)=O)[C@@H](C)O)C(C)C)[C@@H](C)O) [N^ε1-[(4S)-4-carboxy-4-(15-carboxypentadecanoylamino)butanoyl]-[Arg17,Pro21,Pro27,His34]-h-amylin]
